Laboratory results: patent publication US20230139700A1

Legend:
[1] = molecular target: human OX40 on cells (human) (UniProt P43489); assay: flow cytometry on human PBMCs activated with anti-CD3/CD28 beads, 50 nM antibody
[2] = molecular target: human OX40 on cells (human) (UniProt P43489); assay: cell-based or functional assay

human OX40 on cells (human), sequence (P43489 29-277): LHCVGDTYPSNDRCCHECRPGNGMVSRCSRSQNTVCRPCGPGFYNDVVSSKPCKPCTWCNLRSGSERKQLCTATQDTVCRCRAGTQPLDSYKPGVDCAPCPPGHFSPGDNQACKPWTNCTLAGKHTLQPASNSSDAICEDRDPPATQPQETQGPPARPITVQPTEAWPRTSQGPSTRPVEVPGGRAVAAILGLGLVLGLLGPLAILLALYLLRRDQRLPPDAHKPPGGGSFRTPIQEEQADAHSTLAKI

In the case of IgG1 (antibody), the Binding percentage % [1] is reported as 23% and the MFI (ten thousand) [1] is reported as 7000.

Work on OX40L (ligand) yielded a Luciferase IFM, Jurkat-hOX40-NFκB-2 cells [2] of 59000.
